In the experiment the target is full-length α-synuclein (UniProt P37840 1-140). The experiment in a line: NMR; segment 1 (Seg-1).

B1: protein disulfide isomerase (enzyme)
chain: not shown
Usually Kd stands for the equilibrium constant for the complex coming apart. With B1, the Kd was determined as 750 µM.

The record behind these values is article PMC9363494 (2022).
